From paper PMC12392964

Target: FvMYB1-GST (woodland strawberry (Fragaria vesca))
Assay: pull-down; FvSTOP1-His and FvbHLH33-His incubated together with FvMYB1-GST; detection with anti-His, bands quantified with ImageJ against the incubation alone

Substance: FvSTOP1-His (natural protein)
- binding strength with FvbHLH33-His present, against incubation alone (ImageJ): 0.31 times

Substance: FvbHLH33-His (natural protein)
- binding strength with FvSTOP1-His present, against incubation alone (ImageJ): 0.54 times
